In US20200062804A1 (ADRX, published 2020):
Several values for one entry are separate records, joined by “and”; a condition that tells them apart may be missing. Equal entries are not always repeated. Non-standard residues stand in square brackets, D forms with d. No end group written: not given here. Chg = N[C@H](C(=O)O)C1CCCCC1; Phg = N[C@H](C(=O)O)c1ccccc1

B1: LYIRYLR (peptide)
peptide: LYIRYLR
B2: FFRLYLR (peptide)
peptide: FFRLYLR
B3: IRIYRYK (peptide)
peptide: IRIYRYK
B4: IRVYKYS (peptide)
peptide: IRVYKYS
B5: YYIRTYH (peptide)
peptide: YYIRTYH
B6: hqrryqr (peptide)
peptide: [dH][dQ][dR][dR][dY][dQ][dR]
B7: WTIRYYH (peptide)
peptide: WTIRYYH
B8: IRFRRYR (peptide)
peptide: IRFRRYR
B9: klkwqw (peptide)
peptide: [dK][dL][dK][dW][dQ][dW]
B10: Ac-IRIRRYR-NH2 (peptide)
peptide: Ac-IRIRRYR-NH2
B11: LSIRQH (peptide)
peptide: LSIRQH
B12: IRIRAAR (peptide)
peptide: IRIRAAR
B13: ILRLYFR (peptide)
peptide: ILRLYFR
B14: fwrwhaa (peptide)
peptide: [dF][dW][dR][dW][dH][dA][dA]
B15: WTRITLE (peptide)
peptide: WTRITLE
B16: LLIAYHR (peptide)
peptide: LLIAYHR
B17: IWIRRWR (peptide)
peptide: IWIRRWR
B18: rfhrhhr (peptide)
peptide: [dR][dF][dH][dR][dH][dH][dR]
B19: wwrfhwr (peptide)
peptide: [dW][dW][dR][dF][dH][dW][dR]
B20: TFVFRHR (peptide)
peptide: TFVFRHR
B21: ilkwlw (peptide)
peptide: [dI][dL][dK][dW][dL][dW]
B22: LFIYYQR (peptide)
peptide: LFIYYQR
B23: ALIKYHR (peptide)
peptide: ALIKYHR
B24: Chg-Arg-Chg-Arg-Arg-Tyr-Arg (peptide)
peptide: [Chg]R[Chg]RRYR
B25: qwrwrhr (peptide)
peptide: [dQ][dW][dR][dW][dR][dH][dR]
B26: IFVYHH (peptide)
peptide: IFVYHH
B27: LRIKYHR (peptide)
peptide: LRIKYHR
B28: Phg-Arg-Phg-Arg-Arg-Tyr-Arg (peptide)
peptide: [Phg]R[Phg]RRYR
B29: IQIYRYK (peptide)
peptide: IQIYRYK
B30: WTIMLWH (peptide)
peptide: WTIMLWH
B31: TYIYRQR (peptide)
peptide: TYIYRQR
B32: rlkwrw (peptide)
peptide: [dR][dL][dK][dW][dR][dW]
B33: klkklh (peptide)
peptide: [dK][dL][dK][dK][dL][dH]
B34: qlkwlh (peptide)
peptide: [dQ][dL][dK][dW][dL][dH]
B35: LTRILWH (peptide)
peptide: LTRILWH
B36: TRIRFYR (peptide)
peptide: TRIRFYR
B37: LTIRTLH (peptide)
peptide: LTIRTLH
B38: IAIRRYR (peptide)
peptide: IAIRRYR
B39: rfhyfrk (peptide)
peptide: [dR][dF][dH][dY][dF][dR][dK]
B40: LTRILTH (peptide)
peptide: LTRILTH
B41: klkwlw (peptide)
peptide: [dK][dL][dK][dW][dL][dW]
B42: YYIRYYK (peptide)
peptide: YYIRYYK
B43: WTKITLH (peptide)
peptide: WTKITLH
B44: qfhylcrr (peptide)
peptide: [dQ][dF][dH][dY][dK][dR][dR]
B45: LTIQLWH (peptide)
peptide: LTIQLWH
B46: YTYMLWK (peptide)
peptide: YTYMLWK
B47: rmwrhhr (peptide)
peptide: [dR][dM][dW][dR][dH][dH][dR]
B48: LHIEHR (peptide)
peptide: LHIEHR
B49: IRIRRYE (peptide)
peptide: IRIRRYE
B50: IRARRYR (peptide)
peptide: IRARRYR
B51: AYYYRHR (peptide)
peptide: AYYYRHR
B52: WTIRTWH (peptide)
peptide: WTIRTWH
B53: TRIYRVK (peptide)
peptide: TRIYRVK
B54: rqwyrwq (peptide)
peptide: [dR][dQ][dW][dY][dR][dW][dQ]
B55: LLAKYHR (peptide)
peptide: LLAKYHR
B56: LTRITLE (peptide)
peptide: LTRITLE
B57: farahrr (peptide)
peptide: [dF][dA][dR][dA][dH][dR][dR]
B58: LFIFYHR (peptide)
peptide: LFIFYHR
B59: YTIQLWH (peptide)
peptide: YTIQLWH
B60: kwrwyrr (peptide)
peptide: [dK][dW][dR][dW][dY][dR][dR]
B61: FRLYIH (peptide)
peptide: FRLYIH
B62: qvryhkn (peptide)
peptide: [dQ][dV][dR][dY][dH][dK][dN]
B63: IRIRAYR (peptide)
peptide: IRIRAYR
B64: TYVYRRR (peptide)
peptide: TYVYRRR
B65: WTIKLTH (peptide)
peptide: WTIKLTH
B66: shwrhhr (peptide)
peptide: [dS][dH][dW][dR][dH][dH][dR]
B67: klkway (peptide)
peptide: [dK][dL][dK][dW][dA][dY]
B68: WRIRRYR (peptide)
peptide: WRIRRYR
B69: IHIEIK (peptide)
peptide: IHIEIK

Molecular target: T1, Nat1 (LTIITLE) (also: TFA salt)
T1 peptide: LTIITLE
Test: cell-based or functional assay

Binder	IC50, Thiofiavin T aggregation assay
B1	70 nM
B2	13400 nM
B3	60 nM
B4	480 nM
B5	1600 nM
B6	39100 nM
B7	473 nM and 214 nM
B8	496 nM
B9	7310 nM
B10	69 nM
B11	945 nM
B12	451 nM
B13	8970 nM
B14	458 nM
B15	1340 nM
B16	466 nM
B17	1900 nM
B18	30900 nM
B19	472 nM
B20	20300 nM
B21	1340 nM
B22	440 nM
B23	629 nM

Binder	IC50, Thiofiavin T aggregation assay
B24	67 nM
B25	3140 nM
B26	703 nM
B27	71 nM
B28	5950 nM
B29	444 nM
B30	525 nM
B31	5170 nM
B32	702 nM
B33	71 nM
B34	716 nM
B35	16200 nM
B36	64 nM
B37	537 nM
B38	74 nM
B39	51 nM
B40	7370 nM
B41	1060 nM
B42	494 nM
B43	427 nM
B44	23900 nM
B45	481 nM
B46	824 nM

Binder	IC50, Thiofiavin T aggregation assay
B47	13200 nM
B48	657 nM
B49	32800 nM
B50	1250 nM
B51	2120 nM
B52	784 nM
B53	3740 nM
B54	2720 nM
B55	1730 nM
B56	1680 nM
B57	906 nM
B58	476 nM
B59	46000 nM
B60	75 nM
B61	16400 nM
B62	5700 nM
B63	23 nM
B64	3660 nM
B65	720 nM
B66	2270 nM
B67	12600 nM
B68	514 nM
B69	723 nM
